The values below come from paper PMC12416549 (2024).

For the assay, the target named is T1, TNFR1 (Homo sapiens, UniProt P19438).
T1 chain: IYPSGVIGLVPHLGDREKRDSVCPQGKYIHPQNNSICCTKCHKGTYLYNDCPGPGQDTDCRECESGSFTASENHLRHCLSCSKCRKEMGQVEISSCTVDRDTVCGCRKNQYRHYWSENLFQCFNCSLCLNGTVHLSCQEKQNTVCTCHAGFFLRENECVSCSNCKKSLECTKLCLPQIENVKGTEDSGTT
As to the kind of experiment: yeast display SC50.

B1: E22T (designed binder)
chain: SMEEEVEKAAKEYEKKKKEAITKHLEKLKAKDKEAAERFLKELEEAAKEYAKDEAKTMSEEEAKRRAKKYKEKVLLSELSEEEQKEIKEAEEKLVRTILKYVEEAAK
B1: the “apparent Kd (screen)” value is 0.539 nM.

B2: E42A (designed binder)
chain: SMEEEVEKAAKEYEKKKKEAIEKHLEKLKAKDKEAAERFLKALEEAAKEYAKDEAKTMSEEEAKRRAKKYKEKVLLSELSEEEQKEIKEAEEKLVRTILKYVEEAAK
On to B2, for which the “apparent Kd (screen)” value came out at 10.4 nM.

B3: E78H (designed binder)
chain: SMEEEVEKAAKEYEKKKKEAIEKHLEKLKAKDKEAAERFLKELEEAAKEYAKDEAKTMSEEEAKRRAKKYKEKVLLSHLSEEEQKEIKEAEEKLVRTILKYVEEAAK
With B3, the “apparent Kd (screen)” value came out at 0.49 nM.

B4: A36V (designed binder)
chain: SMEEEVEKAAKEYEKKKKEAIEKHLEKLKAKDKEAVERFLKELEEAAKEYAKDEAKTMSEEEAKRRAKKYKEKVLLSELSEEEQKEIKEAEEKLVRTILKYVEEAAK
Consider B4, for which the “apparent Kd (screen)” value turned out to be 0.446 nM.

B5: A106S (designed binder)
chain: SMEEEVEKAAKEYEKKKKEAIEKHLEKLKAKDKEAAERFLKELEEAAKEYAKDEAKTMSEEEAKRRAKKYKEKVLLSELSEEEQKEIKEAEEKLVRTILKYVEEASK
As for B5, the “apparent Kd (screen)” value stood at 0.79 nM.

B6: K15H (designed binder)
chain: SMEEEVEKAAKEYEHKKKEAIEKHLEKLKAKDKEAAERFLKELEEAAKEYAKDEAKTMSEEEAKRRAKKYKEKVLLSELSEEEQKEIKEAEEKLVRTILKYVEEAAK
B6: the “apparent Kd (screen)” value came to 0.49 nM.

B7: L28I (designed binder)
chain: SMEEEVEKAAKEYEKKKKEAIEKHLEKIKAKDKEAAERFLKELEEAAKEYAKDEAKTMSEEEAKRRAKKYKEKVLLSELSEEEQKEIKEAEEKLVRTILKYVEEAAK
With B7, the “apparent Kd (screen)” value turned out to be 1.86 nM.

B8: E37M (designed binder)
chain: SMEEEVEKAAKEYEKKKKEAIEKHLEKLKAKDKEAAMRFLKELEEAAKEYAKDEAKTMSEEEAKRRAKKYKEKVLLSELSEEEQKEIKEAEEKLVRTILKYVEEAAK
Turning to B8, the “apparent Kd (screen)” value is 0.718 nM.

B9: E4H (designed binder)
chain: SMEHEVEKAAKEYEKKKKEAIEKHLEKLKAKDKEAAERFLKELEEAAKEYAKDEAKTMSEEEAKRRAKKYKEKVLLSELSEEEQKEIKEAEEKLVRTILKYVEEAAK
In the case of B9, the “apparent Kd (screen)” value stood at 1.4 nM.

B10: L43D (designed binder)
chain: SMEEEVEKAAKEYEKKKKEAIEKHLEKLKAKDKEAAERFLKEDEEAAKEYAKDEAKTMSEEEAKRRAKKYKEKVLLSELSEEEQKEIKEAEEKLVRTILKYVEEAAK
For B10, the “apparent Kd (screen)” value stood at 6.43 nM.

B11: E62Q (designed binder)
chain: SMEEEVEKAAKEYEKKKKEAIEKHLEKLKAKDKEAAERFLKELEEAAKEYAKDEAKTMSEEQAKRRAKKYKEKVLLSELSEEEQKEIKEAEEKLVRTILKYVEEAAK
For the molecule B11, the “apparent Kd (screen)” value was found to be 0.79 nM.

B12: K41A (designed binder)
chain: SMEEEVEKAAKEYEKKKKEAIEKHLEKLKAKDKEAAERFLAELEEAAKEYAKDEAKTMSEEEAKRRAKKYKEKVLLSELSEEEQKEIKEAEEKLVRTILKYVEEAAK
With B12, the “apparent Kd (screen)” value came to 0.869 nM.

B13: E62C (designed binder)
chain: SMEEEVEKAAKEYEKKKKEAIEKHLEKLKAKDKEAAERFLKELEEAAKEYAKDEAKTMSEECAKRRAKKYKEKVLLSELSEEEQKEIKEAEEKLVRTILKYVEEAAK
As for B13, the “apparent Kd (screen)” value came to 2.73 nM.

B14: E81V (designed binder)
chain: SMEEEVEKAAKEYEKKKKEAIEKHLEKLKAKDKEAAERFLKELEEAAKEYAKDEAKTMSEEEAKRRAKKYKEKVLLSELSVEEQKEIKEAEEKLVRTILKYVEEAAK
As to B14, the “apparent Kd (screen)” value worked out at 0.446 nM.

B15: Q84G (designed binder)
chain: SMEEEVEKAAKEYEKKKKEAIEKHLEKLKAKDKEAAERFLKELEEAAKEYAKDEAKTMSEEEAKRRAKKYKEKVLLSELSEEEGKEIKEAEEKLVRTILKYVEEAAK
For B15, the “apparent Kd (screen)” value was determined as 12.5 nM.

B16: E22A (designed binder)
chain: SMEEEVEKAAKEYEKKKKEAIAKHLEKLKAKDKEAAERFLKELEEAAKEYAKDEAKTMSEEEAKRRAKKYKEKVLLSELSEEEQKEIKEAEEKLVRTILKYVEEAAK
For B16, the “apparent Kd (screen)” value was determined as 0.539 nM.

B17: Y70K (designed binder)
chain: SMEEEVEKAAKEYEKKKKEAIEKHLEKLKAKDKEAAERFLKELEEAAKEYAKDEAKTMSEEEAKRRAKKKKEKVLLSELSEEEQKEIKEAEEKLVRTILKYVEEAAK
As to B17, the “apparent Kd (screen)” value came out at 0.446 nM.

B18: D32Y (designed binder)
chain: SMEEEVEKAAKEYEKKKKEAIEKHLEKLKAKYKEAAERFLKELEEAAKEYAKDEAKTMSEEEAKRRAKKYKEKVLLSELSEEEQKEIKEAEEKLVRTILKYVEEAAK
Turning to B18, the “apparent Kd (screen)” value is 13.8 nM.

B19: E62W (designed binder)
chain: SMEEEVEKAAKEYEKKKKEAIEKHLEKLKAKDKEAAERFLKELEEAAKEYAKDEAKTMSEEWAKRRAKKYKEKVLLSELSEEEQKEIKEAEEKLVRTILKYVEEAAK
B19: the “apparent Kd (screen)” value amounted to 0.956 nM.

B20: A55Y (designed binder)
chain: SMEEEVEKAAKEYEKKKKEAIEKHLEKLKAKDKEAAERFLKELEEAAKEYAKDEYKTMSEEEAKRRAKKYKEKVLLSELSEEEQKEIKEAEEKLVRTILKYVEEAAK
On to B20, for which the “apparent Kd (screen)” value was 10.4 nM.

B21: Y50P (designed binder)
chain: SMEEEVEKAAKEYEKKKKEAIEKHLEKLKAKDKEAAERFLKELEEAAKEPAKDEAKTMSEEEAKRRAKKYKEKVLLSELSEEEQKEIKEAEEKLVRTILKYVEEAAK
B21: the “apparent Kd (screen)” value was determined as 4.39 nM.

B22: H24Y (designed binder)
chain: SMEEEVEKAAKEYEKKKKEAIEKYLEKLKAKDKEAAERFLKELEEAAKEYAKDEAKTMSEEEAKRRAKKYKEKVLLSELSEEEQKEIKEAEEKLVRTILKYVEEAAK
B22: the “apparent Kd (screen)” value turned out to be 1.69 nM.

B23: A90P (designed binder)
chain: SMEEEVEKAAKEYEKKKKEAIEKHLEKLKAKDKEAAERFLKELEEAAKEYAKDEAKTMSEEEAKRRAKKYKEKVLLSELSEEEQKEIKEPEEKLVRTILKYVEEAAK
Regarding B23, the “apparent Kd (screen)” value is 26.9 nM.

B24: E86Y (designed binder)
chain: SMEEEVEKAAKEYEKKKKEAIEKHLEKLKAKDKEAAERFLKELEEAAKEYAKDEAKTMSEEEAKRRAKKYKEKVLLSELSEEEQKYIKEAEEKLVRTILKYVEEAAK
Turning to B24, the “apparent Kd (screen)” value came to 1.4 nM.

B25: E3C (designed binder)
chain: SMCEEVEKAAKEYEKKKKEAIEKHLEKLKAKDKEAAERFLKELEEAAKEYAKDEAKTMSEEEAKRRAKKYKEKVLLSELSEEEQKEIKEAEEKLVRTILKYVEEAAK
B25: the “apparent Kd (screen)” value worked out at 7.07 nM.

B26: K23L (designed binder)
chain: SMEEEVEKAAKEYEKKKKEAIELHLEKLKAKDKEAAERFLKELEEAAKEYAKDEAKTMSEEEAKRRAKKYKEKVLLSELSEEEQKEIKEAEEKLVRTILKYVEEAAK
On to B26, for which the “apparent Kd (screen)” value was determined as 0.79 nM.

B27: L40A (designed binder)
chain: SMEEEVEKAAKEYEKKKKEAIEKHLEKLKAKDKEAAERFAKELEEAAKEYAKDEAKTMSEEEAKRRAKKYKEKVLLSELSEEEQKEIKEAEEKLVRTILKYVEEAAK
As to B27, the “apparent Kd (screen)” value is 0.446 nM.

B28: I21L (designed binder)
chain: SMEEEVEKAAKEYEKKKKEALEKHLEKLKAKDKEAAERFLKELEEAAKEYAKDEAKTMSEEEAKRRAKKYKEKVLLSELSEEEQKEIKEAEEKLVRTILKYVEEAAK
As to B28, the “apparent Kd (screen)” value stood at 1.16 nM.

B29: S59T (designed binder)
chain: SMEEEVEKAAKEYEKKKKEAIEKHLEKLKAKDKEAAERFLKELEEAAKEYAKDEAKTMTEEEAKRRAKKYKEKVLLSELSEEEQKEIKEAEEKLVRTILKYVEEAAK
On to B29, for which the “apparent Kd (screen)” value turned out to be 1.54 nM.

B30: K41P (designed binder)
chain: SMEEEVEKAAKEYEKKKKEAIEKHLEKLKAKDKEAAERFLPELEEAAKEYAKDEAKTMSEEEAKRRAKKYKEKVLLSELSEEEQKEIKEAEEKLVRTILKYVEEAAK
With B30, the “apparent Kd (screen)” value was 2.48 nM.

B31: Y70E (designed binder)
chain: SMEEEVEKAAKEYEKKKKEAIEKHLEKLKAKDKEAAERFLKELEEAAKEYAKDEAKTMSEEEAKRRAKKEKEKVLLSELSEEEQKEIKEAEEKLVRTILKYVEEAAK
On to B31, for which the “apparent Kd (screen)” value turned out to be 0.718 nM.

B32: Y101F (designed binder)
chain: SMEEEVEKAAKEYEKKKKEAIEKHLEKLKAKDKEAAERFLKELEEAAKEYAKDEAKTMSEEEAKRRAKKYKEKVLLSELSEEEQKEIKEAEEKLVRTILKFVEEAAK
In the case of B32, the “apparent Kd (screen)” value amounted to 0.49 nM.

B33: S77A (designed binder)
chain: SMEEEVEKAAKEYEKKKKEAIEKHLEKLKAKDKEAAERFLKELEEAAKEYAKDEAKTMSEEEAKRRAKKYKEKVLLAELSEEEQKEIKEAEEKLVRTILKYVEEAAK
B33: the “apparent Kd (screen)” value was determined as 0.49 nM.
